Test [1] concerns the target mCherry-RAB11A (UniProt P62491). As to the kind of experiment: FRET or BRET. On the technique in general: Bioluminescence resonance energy transfer reports proximity on the nanometre scale.
Test [2] has the same target. Nature of the test: FRET or BRET. The source holds these as a separate data set.

Where two headings read alike, the source gives them in different places.

Chain of UniProt P62491 (P62491 whole entry): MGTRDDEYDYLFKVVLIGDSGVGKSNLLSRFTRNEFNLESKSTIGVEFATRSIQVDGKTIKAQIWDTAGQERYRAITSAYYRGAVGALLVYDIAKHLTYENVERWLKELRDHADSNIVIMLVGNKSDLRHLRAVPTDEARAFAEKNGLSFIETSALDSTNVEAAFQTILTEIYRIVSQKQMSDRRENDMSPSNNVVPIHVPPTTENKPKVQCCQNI

Consider “KIF13A-YFP fusion protein (natural protein)”, for which the mean YFP fluorescence lifetime (FLIM) in the test with mCherry-RAB11A [1] is 2.19 ns; with mCherry-RAB11A [2], 2.45 ns.

Values taken from paper PMC3928541.
